Measurements as given in patent publication US20250250357A1 (NANJING ZAIMING PHARMACEUTICAL, published 2025).
Read-outs that look alike come from different tables or passages of the source.

Columns and labels:
[1] = target: T1, human MSLN-FL-his protein (human, UniProt Q13421 296-580); test: competitive ELISA; row F8-19.21; note: test concentration or dose not given here
T1 construct: made in HEK293E cells, purified on nickel column; also called hMSLN-FL-his; human MSLN full-length protein; not shown: His tag

[2] = target: T1, human MSLN-FL-his protein; test: competitive ELISA; row F8-5.15; note: test concentration or dose not given here
[3] = target: T1, human MSLN-FL-his protein; test: competitive ELISA; row F8-4.5; note: test concentration or dose not given here
[4] = target: T1, human MSLN-FL-his protein; test: competitive ELISA; row F8-7.5; note: test concentration or dose not given here
[5] = target: T1, human MSLN-FL-his protein; test: competitive ELISA; row F8-12.13; note: test concentration or dose not given here
[6] = target: T2, human MSLN-R3 protein expressed on HEK293T cells (HEK293T-hMSLN-R3) (human, UniProt Q13421 487-606); test: FACS on HEK293T-hMSLN-R3 cells;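 note: chimeric antibodies incubated with cells on ice for 2 h, binding read by flow cytometry as mean fluorescence intensity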
T2 construct: C-terminal limit uncertain
Protocol: (§1) The desired cells were expanded to the logarithmic growth phase in a T-75 cell culture flask. […] After the cells from the previous step were subjected to cell counting, the cell pellet was resuspended to 2×10⁶ cells/mL in a blocking buffer of [PBS+2% (w/w) BSA] and added into a 96-well FACS reaction plate at 50 μL/well. A chimeric antibody (a sample to be tested) was added at 50 μL/well, and the plate was incubated on ice for 2 h. […] After the plate was centrifuged and washed 5 times with a PBST buffer, assay and analysis were performed by FACS (FACS CantoII, purchased from BD). Data analysis was performed by software (Flowjo) to obtain the mean fluorescence intensity (MFI) of the cells.

[7] = target: T1, human MSLN-FL-his protein; test: competitive ELISA; row F8-18.9; note: test concentration or dose not given here
[8] = target: T1, human MSLN-FL-his protein; test: competitive ELISA; row Tab021; note: test concentration or dose not given here
[9] = target: T1, human MSLN-FL-his protein; test: competitive ELISA; row F8-31.22; note: test concentration or dose not given here
[10] = target: T1, human MSLN-FL-his protein; test: competitive ELISA; row F8-15.19; note: test concentration or dose not given here
[11] = target: T3, human MSLN protein endogenously expressed on OVCAR3 tumor cells (human, UniProt Q13421 296-598); test: FACS on OVCAR3 cells;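 for EC50: flow cytometry of chimeric antibody binding to OVCAR3 cells, 2 h on ice, read as cellular mean fluorescence intensity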
T3 construct: whole, on cells; endogenous expression on a tumor cell line; also called human mesothelin
T3 sequence (Q13421 other isoform, or with tags, fused parts or gaps): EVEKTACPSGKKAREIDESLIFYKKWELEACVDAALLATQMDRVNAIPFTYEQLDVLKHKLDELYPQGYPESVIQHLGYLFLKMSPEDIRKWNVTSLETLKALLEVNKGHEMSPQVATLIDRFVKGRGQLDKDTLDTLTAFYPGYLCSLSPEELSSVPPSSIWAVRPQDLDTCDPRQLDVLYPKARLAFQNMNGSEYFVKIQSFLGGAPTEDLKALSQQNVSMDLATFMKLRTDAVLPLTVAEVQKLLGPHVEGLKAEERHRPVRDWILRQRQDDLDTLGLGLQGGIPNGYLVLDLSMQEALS
Protocol: as §1

[12] = target: T1, human MSLN-FL-his protein; test: SPR (Biacore), antibody captured on Protein A chip;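 note: flow cell at 25 °C, antigen injected for 240 s at five concentrations from 200 nM downward, dissociation followed up to 600 s, double-referenced, fitted with Langmuir 1:1 model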
[13] = target: T1, human MSLN-FL-his protein; test: competitive ELISA; row F8-27.1; note: test concentration or dose not given here
[14] = target: T1, human MSLN-FL-his protein; test: competitive ELISA; row F8-13.8; note: test concentration or dose not given here
[15] = target: T1, human MSLN-FL-his protein; test: competitive ELISA; row Tab142; note: test concentration or dose not given here
[16] = target: T4, human MSLN protein endogenously expressed on OVCAR3 tumor cells (human, UniProt Q13421 296-598); test: FACS on OVCAR3 cells;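 for EC50: flow cytometry of chimeric antibody binding to OVCAR3 cells, 2 h on ice, read as cellular mean fluorescence intensity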
T4 construct: whole, on cells; Endogenous target on OVCAR3 cells; kept apart from the recombinant full-length construct; also called mesothelin
Protocol: as §1

[17] = target: T5, human MSLN full-length protein (NCBI: AAH09272.1) expressed on HEK293T-hMSLN-B8 cells (human, UniProt Q13421 296-598); test: FACS on HEK293T-hMSLN-B8 cells
T5 construct: Whole encoded precursor
Protocol: as §1

[18] = target: T6, human MSLN-R3 protein (Met487-Ser606 of NCBI AAH09272.1) expressed on HEK293T-hMSLN-R3 cells (human, UniProt Q13421 487-606); test: FACS on HEK293T-hMSLN-R3 cells
T6 construct: also called Region3
T6 sequence (Q13421 495-614): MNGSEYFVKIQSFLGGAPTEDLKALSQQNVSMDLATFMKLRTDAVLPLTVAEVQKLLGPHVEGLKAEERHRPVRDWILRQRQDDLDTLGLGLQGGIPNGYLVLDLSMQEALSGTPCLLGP
Protocol: as §1

T1 sequence (Q13421 other isoform, or with tags, fused parts or gaps): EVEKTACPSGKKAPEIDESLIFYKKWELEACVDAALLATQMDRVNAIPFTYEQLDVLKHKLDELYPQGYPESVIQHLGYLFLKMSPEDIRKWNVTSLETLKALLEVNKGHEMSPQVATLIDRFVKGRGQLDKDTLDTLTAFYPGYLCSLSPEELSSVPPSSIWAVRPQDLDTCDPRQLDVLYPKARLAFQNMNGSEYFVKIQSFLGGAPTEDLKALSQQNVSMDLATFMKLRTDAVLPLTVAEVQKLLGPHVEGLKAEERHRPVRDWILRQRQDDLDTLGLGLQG
T2 sequence (Q13421 495-614): as the sequence (Q13421 495-614) above
T5 sequence (Q13421 other isoform, or with tags, fused parts or gaps limits assumed): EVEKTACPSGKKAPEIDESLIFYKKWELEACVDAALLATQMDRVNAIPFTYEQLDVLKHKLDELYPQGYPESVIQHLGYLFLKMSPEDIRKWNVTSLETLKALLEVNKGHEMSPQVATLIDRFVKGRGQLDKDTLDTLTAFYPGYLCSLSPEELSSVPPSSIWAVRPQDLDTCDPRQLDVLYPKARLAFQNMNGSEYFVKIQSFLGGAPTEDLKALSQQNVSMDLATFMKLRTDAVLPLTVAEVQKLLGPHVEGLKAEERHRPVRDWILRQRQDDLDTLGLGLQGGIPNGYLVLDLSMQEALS

Binder	competition rate [1] [%]	competition rate [2] [%]	competition rate [3] [%]	competition rate [4] [%]	competition rate [5] [%]	Maximum mean fluorescence intensity [6]	binding result [6]	competition rate [7] [%]	competition rate [8] [%]	competition rate [9] [%]	competition rate [10] [%]	EC50 [11] [nM]	Maximum mean fluorescence intensity [11]	Kd [12] [nM]	koff [12] [s⁻¹]	kon [12] [M⁻¹ s⁻¹]	competition rate [13] [%]	competition rate [14] [%]	competition rate [15] [%]	further results
S009-F8-18.9 (antibody, human IgG1, kappa, V domains shown, human-murine chimeric antibody, human IgG1/kappa constant regions) VH: EFQLQQSGPELVKPGASVKISCKASGYSFTDYNMNWVKQSNGKSLEWIGIINPNYGTTSYNQKFKGRATLTVDQSSSTAYVQLNSLTSEDSAVYYCARGGYDNEAMDYWGQGTSVTVSS VL: QIVLTQSPAIMSASPGEKVTMTCSASSSVSYMHWYQQKSGTSPKRWIYDTSKLASGVPARFSGSGSGTSYSLTISSMEAEDAATYYCQQWSSNPPTFGAGTKLELKR	91.3	99.7	83.3	-116	97.2	131	no binding	6.6	2.63	98	99.5	24.1	10800	3.17	0.000876	276000	96.8	77.5	85.5	–
S009-F1.62.9 (antibody, human IgG1, kappa, V domains shown, human-murine chimeric antibody, human IgG1/kappa constant regions) VH: EVQLQQSGADLVKPGASVKLSCTVFGLNFKDTFMHWVRQRPEQGLEWIGRIDPANDNSIYGPKFQDKATITADTSSNTAYLHLSSLTSEDTAVYYCLYFDNWGHGTTLTVSS VL: DIVMTQAASSEPVTPGESVSISCRSDKSLLHSNGHNYLYWFLQRPGQSPHLLIYRMSNLASGVPDRFSGSGSGTAFTLRISRVEAEDVGVYYCMQHLEYPLTFGAGTKLELKR	–	–	–	–	–	–	–	–	–	–	–	–	–	–	–	–	–	–	–	Maximum mean fluorescence intensity [16]: 425; Maximum mean fluorescence intensity [17]: 9550; EC50 [18]: 0.95 nM; Maximum mean fluorescence intensity [18]: 6930
S009-F8-7.5 (antibody, human IgG1, kappa, V domains shown, human-murine chimeric antibody, human IgG1/kappa constant regions) VH: DVQLQESGPGLVKPSQSLSLTCSVTGYSITSGYYWNWIRQFPGNKLEWMAYIRYDGSNNYNPSLKNRISIIRDTSKNQFFLRLNSVTTEDTATYYCAKSYYGMDDWGQGISVTVSS VL: DIQMTQSPASLSASVGETVTITCRTSGDIHNYLAWYQQKQGKSPQLLVYKAKTLENGVPSRFTGSGSGTQFSLKIDSLQPEDFGTYYCQHFWTTPYTFGGGTKLEIKR	14.7	83.3	3.24	85.8	-23.2	279	no binding	11.2	14.2	-71.5	-15.7	0.71	8990	92.6	0.0215	232000	3.35	3.15	2.16	–
S009-F8-12.13 (antibody, human IgG1, kappa, V domains shown, human-murine chimeric antibody, human IgG1/kappa constant regions) VH: QVQLQQPGAELVKPGASVKLSCKASGYTFTSYWMHWVKQRPGQGLEWIGMIHPNSGSTNYNEKFKSKATLTVDKSSSTAYMQLSSLTSEDSAVYYCARRTPIITLVGHWYFDVWGTGTTVTVSS VL: DIVMTQSHKFMSTSVGDRVSITCKASQDVGTAVAWYQQKPGQSPKLLIYWASTRHTGVPDRFTGSGSGTDFTLTISNVQSEDLADYFCQQYSSYPLTFGAGTKLELKR	75.9	99.3	88.2	-135	93.7	135	no binding	10.1	6.56	92.2	98.5	2.24	9830	5.5	0.00296	539000	93.5	51.1	65.5	–
S009-F8-4.5 (antibody, human IgG1, kappa, V domains shown, human-murine chimeric antibody, human IgG1/kappa constant regions) VH: QVQLQQPGAELVKPGASVKLSCKASGYTFTIYWMHWVKQRPGQGLEWIGMIHPNSGNTNYNEKFKSKATLTVDKSSSTAYMQLSSLTSEDSAVYYCSLIHWYFDVWGTGTTVTVSS VL: QIVLTQSPAIMSASPGEKVTMTCSASSSVSYMYWYQQKPGSSPRLLIYDTSNLASGVPVRFSGSGSGTSYSLTISRMEAEDAATYYCQQWSSYPLTFGAGTKLELKR	98.9	100	97.5	23.6	98.9	192	no binding	8.32	9.76	89.7	100	4.93	14000	0.824	0.000599	727000	99.8	95.8	97.8	–

Further lines, with some results ahead:

competition rate [1] [%]	competition rate [2] [%]	competition rate [3] [%]	competition rate [4] [%]	competition rate [5] [%]	Maximum mean fluorescence intensity [6]	binding result [6]	competition rate [7] [%]	competition rate [8] [%]	competition rate [9] [%]	competition rate [10] [%]	EC50 [11] [nM]	Maximum mean fluorescence intensity [11]	Kd [12] [nM]	koff [12] [s⁻¹]	kon [12] [M⁻¹ s⁻¹]	competition rate [13] [%]	competition rate [14] [%]	competition rate [15] [%]	Binder	further results
95.4	99.5	89.7	-137	97.3	98	no binding	6.96	4.93	98.5	99.8	5.13	13000	1.98	0.00172	871000	98.4	82	92.2	S009-F8-19.21 (antibody, human IgG1, kappa, V domains shown, human-murine chimeric antibody, human IgG1/kappa constant regions) VH: EFQLQQSGPELVKPGASVKISCKTSGYSFTDYNMNWVKQSNGKSLEWIGVINPNYGTTGYNQKFKGKATLTVDQSSSTAYMQLNSLTSEDSAVYYCARGGYDGEAMDYWGHGTSVTVSS VL: QIVLTQSPAIMSASPGEKVTMTCSASSSVNYMHWYQQKSGTSPKRWIYDTSKLASGVPARFSGSGSGTSYSLTISSMEAEDAATYYCQQWSSYPPTFGGGTKLEIKR	–
90.2	99.8	92	-9.43	98.7	120	no binding	-2.77	12.2	-13.1	99.2	77.9	7620	1.95	0.000234	120000	95.3	74.6	86.2	S009-F8-27.1 (antibody, human IgG1, kappa, V domains shown, human-murine chimeric antibody, human IgG1/kappa constant regions) VH: EVQLVESGGGLVKPGGSLKLSCAASGFTFSSYAMSWVRQTPEKRLEWVATISDGGNYTYYPDNVKGRFTISRDNAKNNLYLQMSHLKSEDTAMYYCAGDRGYPYAMDSWGQGTSVTVSS VL: NIMMTQSPSSLAVSAGEKVTMSCKSSQSVLYSSNQKNYLAWYQQKPGQSPKLLIYWASTRESGVPDRFTGSGSGTDFTLTISNVHAEDLAVYYCHQYLSSLTFGAGTKLELKR	–
96.5	99.9	93	-135	97.9	95	no binding	11.3	14.2	99	99.8	1.42	13000	0.95	0.00125	1.31e+06	98.4	86.2	93.8	S009-F8-13.8 (antibody, human IgG1, kappa, V domains shown, human-murine chimeric antibody, human IgG1/kappa constant regions) VH: EFQLQQSGPELVKPGASVKISCKASGYSFTDYNMNWVKQTNGKSLEWIGIINPNYGTSSYNQKFKGKATLTVDQSSSTAYMQLNSLTSEDSAVYYCARVGRDNSGFDYWGQGTTLTVSS VL: QIVLTQSPAIMSASPGEKVTMTCSASSSVSYMYWYQQKPGSSPRLLIYDTSNLASGVPVRFSGSGSGTSYSLTISRMEAEDAATYYCQQWSSYPPTFGSGTELEIKR	–
